± gives the uncertainty stated by the source.
B1: Serine/threonine-protein kinase LATS1, residues 98 to 141; numbered along this chain, O95835 (parent)
chain: TSEVNPQMLQDLQAAGFDEDMVIQALQKTNNRSIEAAIEFISKM

Variants of: B1
Assay: abundance fitness (aPCA) (normalised: wild type 0, dead -1); higher = more abundant; growth selection in yeast, the domain comes from the species named
Settings: Homo sapiens
Work on TSEVNPQMLQDLQAAGFDEDMVIAALQKTNNRSIEAAIEFISKM yielded an abundance fitness of -0.066 ± 0.034.
TSEVNPQMLQDLQAAGFDEDMVIYALQKTNNRSIEAAIEFISKM gave an abundance fitness of -0.222 ± 0.13.
TSEVNPQMLQDLQAAGFDEDMVITALQKTNNRSIEAAIEFISKM showed an abundance fitness of 0.009 ± 0.044.
Work on TSEVNPQMLQDLQAAGFDEDMVIFALQKTNNRSIEAAIEFISKM yielded an abundance fitness of 0.019 ± 0.13.
TSEVNPQMLQDLQAAGFDEDMVIRALQKTNNRSIEAAIEFISKM showed an abundance fitness of -0.103 ± 0.033.
Work on TSEVNPQMLQDLQAAGFDEDMVIEALQKTNNRSIEAAIEFISKM yielded an abundance fitness of 0.083 ± 0.038.
With TSEVNPQMLQDLQAAGFDEDMVIIALQKTNNRSIEAAIEFISKM the abundance fitness was -0.015 ± 0.083.
TSEVNPQMLQDLQAAGFDEDMVIHALQKTNNRSIEAAIEFISKM showed an abundance fitness of 0.055 ± 0.048.
TSEVNPQMLQDLQAAGFDEDMVIVALQKTNNRSIEAAIEFISKM showed an abundance fitness of -0.033 ± 0.033.
For TSEVNPQMLQDLQAAGFDEDMVICALQKTNNRSIEAAIEFISKM, the abundance fitness was -0.043 ± 0.042.
Variant TSEVNPQMLQDLQAAGFDEDMVISALQKTNNRSIEAAIEFISKM has an abundance fitness of -0.196 ± 0.043.
Variant TSEVNPQMLQDLQAAGFDEDMVILALQKTNNRSIEAAIEFISKM has an abundance fitness of 0.013 ± 0.036.
For TSEVNPQMLQDLQAAGFDEDMVIKALQKTNNRSIEAAIEFISKM, the abundance fitness was 0.035 ± 0.06.
Work on TSEVNPQMLQDLQAAGFDEDMVIMALQKTNNRSIEAAIEFISKM yielded an abundance fitness of -0.028 ± 0.037.
TSEVNPQMLQDLQAAGFDEDMVIQMLQKTNNRSIEAAIEFISKM gave an abundance fitness of -0.887 ± 0.1.
TSEVNPQMLQDLQAAGFDEDMVIQQLQKTNNRSIEAAIEFISKM showed an abundance fitness of -0.697 ± 0.088.
TSEVNPQMLQDLQAAGFDEDMVIQHLQKTNNRSIEAAIEFISKM gave an abundance fitness of -0.937 ± 0.21.
For TSEVNPQMLQDLQAAGFDEDMVIQPLQKTNNRSIEAAIEFISKM, the abundance fitness was -0.415 ± 0.056.
TSEVNPQMLQDLQAAGFDEDMVIQTLQKTNNRSIEAAIEFISKM gave an abundance fitness of -0.741 ± 0.058.
With TSEVNPQMLQDLQAAGFDEDMVIQRLQKTNNRSIEAAIEFISKM the abundance fitness was -0.768 ± 0.046.
Variant TSEVNPQMLQDLQAAGFDEDMVIQVLQKTNNRSIEAAIEFISKM has an abundance fitness of -0.68 ± 0.05.
With TSEVNPQMLQDLQAAGFDEDMVIQNLQKTNNRSIEAAIEFISKM the abundance fitness was -0.622 ± 0.13.
TSEVNPQMLQDLQAAGFDEDMVIQELQKTNNRSIEAAIEFISKM gave an abundance fitness of -0.668 ± 0.06.
TSEVNPQMLQDLQAAGFDEDMVIQYLQKTNNRSIEAAIEFISKM showed an abundance fitness of -0.554 ± 0.067.
With TSEVNPQMLQDLQAAGFDEDMVIQKLQKTNNRSIEAAIEFISKM the abundance fitness was -0.684 ± 0.083.
Variant TSEVNPQMLQDLQAAGFDEDMVIQWLQKTNNRSIEAAIEFISKM has an abundance fitness of -0.728 ± 0.042.
TSEVNPQMLQDLQAAGFDEDMVIQILQKTNNRSIEAAIEFISKM showed an abundance fitness of -0.631 ± 0.24.
TSEVNPQMLQDLQAAGFDEDMVIQSLQKTNNRSIEAAIEFISKM showed an abundance fitness of -0.295 ± 0.035.
Variant TSEVNPQMLQDLQAAGFDEDMVIQLLQKTNNRSIEAAIEFISKM has an abundance fitness of -0.802 ± 0.057.
Variant TSEVNPQMLQDLQAAGFDEDMVIQGLQKTNNRSIEAAIEFISKM has an abundance fitness of -0.443 ± 0.033.
TSEVNPQMLQDLQAAGFDEDMVIQDLQKTNNRSIEAAIEFISKM gave an abundance fitness of -0.541 ± 0.088.
Work on TSEVNPQMLQDLQAAGFDEDMVIQALQKTDNRSIEAAIEFISKM yielded an abundance fitness of -0.093 ± 0.055.
In the case of TSEVNPQMLQDLQAAGFDEDMVIQALQKTQNRSIEAAIEFISKM, the abundance fitness is reported as -0.055 ± 0.047.
For TSEVNPQMLQDLQAAGFDEDMVIQALQKTPNRSIEAAIEFISKM, the abundance fitness was -0.529 ± 0.061.
For TSEVNPQMLQDLQAAGFDEDMVIQALQKTENRSIEAAIEFISKM, the abundance fitness was 0.015 ± 0.04.
TSEVNPQMLQDLQAAGFDEDMVIQALQKTANRSIEAAIEFISKM showed an abundance fitness of -0.193 ± 0.033.
In the case of TSEVNPQMLQDLQAAGFDEDMVIQALQKTRNRSIEAAIEFISKM, the abundance fitness is reported as -0.103 ± 0.033.
TSEVNPQMLQDLQAAGFDEDMVIQALQKTFNRSIEAAIEFISKM showed an abundance fitness of -1.05 ± 0.15.
Variant TSEVNPQMLQDLQAAGFDEDMVIQALQKTHNRSIEAAIEFISKM has an abundance fitness of -0.206 ± 0.24.
For TSEVNPQMLQDLQAAGFDEDMVIQALQKTMNRSIEAAIEFISKM, the abundance fitness was -0.553 ± 0.065.
TSEVNPQMLQDLQAAGFDEDMVIQALQKTLNRSIEAAIEFISKM showed an abundance fitness of -1.14 ± 0.097.
For TSEVNPQMLQDLQAAGFDEDMVIQALQKTGNRSIEAAIEFISKM, the abundance fitness was 0.045 ± 0.032.
For TSEVNPQMLQDLQAAGFDEDMVIQALQKTKNRSIEAAIEFISKM, the abundance fitness was -0.021 ± 0.042.
Variant TSEVNPQMLQDLQAAGFDEDMVIQALVKTNNRSIEAAIEFISKM has an abundance fitness of -0.043 ± 0.039.
For TSEVNPQMLQDLQAAGFDEDMVIQALEKTNNRSIEAAIEFISKM, the abundance fitness was -0.041 ± 0.042.
For TSEVNPQMLQDLQAAGFDEDMVIQALCKTNNRSIEAAIEFISKM, the abundance fitness was -0.273 ± 0.042.
For TSEVNPQMLQDLQAAGFDEDMVIQALDKTNNRSIEAAIEFISKM, the abundance fitness was -0.151 ± 0.065.
In the case of TSEVNPQMLQDLQAAGFDEDMVIQALTKTNNRSIEAAIEFISKM, the abundance fitness is reported as -0.007 ± 0.044.
Variant TSEVNPQMLQDLQAAGFDEDMVIQALLKTNNRSIEAAIEFISKM has an abundance fitness of -0.068 ± 0.04.
In the case of TSEVNPQMLQDLQAAGFDEDMVIQALRKTNNRSIEAAIEFISKM, the abundance fitness is reported as -0.042 ± 0.031.
TSEVNPQMLQDLQAAGFDEDMVIQALMKTNNRSIEAAIEFISKM showed an abundance fitness of -0.123 ± 0.044.
TSEVNPQMLQDLQAAGFDEDMVIQALAKTNNRSIEAAIEFISKM gave an abundance fitness of -0.125 ± 0.037.
For TSEVNPQMLQDLQAAGFDEDMVIQALHKTNNRSIEAAIEFISKM, the abundance fitness was -0.269 ± 0.092.
In the case of TSEVNPQMLQDLQAAGFDEDMVIQALPKTNNRSIEAAIEFISKM, the abundance fitness is reported as -0.597 ± 0.055.
TSEVNPQMLQDLQAAGFDEDMVIQALSKTNNRSIEAAIEFISKM gave an abundance fitness of -0.071 ± 0.036.
TSEVNPQMLQDLQAAGFDEDMVIQALKKTNNRSIEAAIEFISKM showed an abundance fitness of 0.068 ± 0.044.
TSEVNPQMLQDLQAAGFDEDMVIQALWKTNNRSIEAAIEFISKM gave an abundance fitness of -0.57 ± 0.042.
Variant TSEVNPQMLQDLQAAGFDEDMVIQALGKTNNRSIEAAIEFISKM has an abundance fitness of -0.292 ± 0.031.

— the Human Domainome abundance scans (Beltran et al. 2025)
